Reference: article PMC4738354, “Volta phase plate cryo-EM of the small protein complex Prx3” (Nature Communications, 2016)

Biological target: the molecule itself
Test: cryo-EM structure; single-particle cryo-EM with Volta phase plate, frozen-hydrated hPrx3 in thick ice; two data sets (7.3 Å and 4.4 Å reconstructions); D6 symmetry imposed in 3D classification of the first data set

B1: human peroxiredoxin-3 (natural protein, UniProt P30048 62-256, looked up)
chain: APAVTQHAPYFKGTAVVNGEFKDLSLDDFKGKYLVLFFYPLDFTFVCPTEIVAFSDKANEFHDVNCEVVAVSVDSHFSHLAWINTPRKNGGLGHMNIALLSDLTKQISRDYGVLLEGSGLALRGLFIIDPNGVIKHLSVNDLPVGRSVEETLRLVKAFQYVETHGEVCPANWTPDSPTIKPSPAASKEYFQKVNQ
notes: peroxiredoxin-3 (Prx3), human mitochondrial isoform; also called hPrx3; Prx3; source: Rosetta (DE3) cells (Novagen), purified (HisTrap, Superdex 200 gel filtration, TEV cleavage of the His-tag); copies: 12
- stoichiometry N: 12
